Measured values reported in paper PMC7374170, “TRIB3-EGFR interaction promotes lung cancer progression and defines a therapeutic target” (Nature Communications, 2020).

Biological target: TRIB3 (tribbles pseudokinase 3), purified protein (UniProt Q96RU7)
Test: FP

TRIB3 (tribbles pseudokinase 3), purified protein, sequence (Q96RU7 whole entry): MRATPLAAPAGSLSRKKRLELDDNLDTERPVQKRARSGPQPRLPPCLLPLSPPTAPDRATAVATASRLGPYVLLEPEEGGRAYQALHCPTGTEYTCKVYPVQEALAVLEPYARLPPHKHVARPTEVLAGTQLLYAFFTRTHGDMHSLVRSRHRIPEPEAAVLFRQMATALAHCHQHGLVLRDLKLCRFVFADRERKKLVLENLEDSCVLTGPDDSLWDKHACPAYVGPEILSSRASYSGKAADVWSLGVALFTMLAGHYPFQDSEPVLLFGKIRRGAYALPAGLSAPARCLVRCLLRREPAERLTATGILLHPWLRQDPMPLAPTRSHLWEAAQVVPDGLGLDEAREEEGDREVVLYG

“SAH-JGZ4, stapled JGZ peptide (from UniProt P00533)” was tested, and the IC50 was 90.3 nM and the Ki was 27.7 nM.
